Reference: paper PMC10716038, “Talin and kindlin use integrin tail allostery and direct binding to activate integrins” (Nature Structural & Molecular Biology, 2023)
Several values for one entry are separate records, joined by “and”; a condition that tells them apart may be missing. Equal values may be shown once. No end group written: not given here.

T1: biotinylated integrin β3 transmembrane and cytoplasmic tail polypeptide (β3-TM–CT) in nanodiscs (UniProt O54890 715-787, biotin (biotin-maleimide))
T1 construct: integrin β3 TM and CT, residues 715-787; embedded in MSP2N2 nanodiscs with 10% PIP2 or PIP3 and 90% DMPC; held on streptavidin beads; also called b3; source: E. coli BL21 (DE3) Rosetta 2, inclusion bodies, purified (IMAC, cation exchange)
T1 sequence (looked up): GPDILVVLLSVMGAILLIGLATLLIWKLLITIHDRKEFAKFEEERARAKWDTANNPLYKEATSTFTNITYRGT

B1: talin-1 head domain (THD1) (domain or fragment, UniProt P26039 1-405, looked up)
chain: MVALSLKISIGNVVKTMQFEPSTMVYDACRMIRERIPEALAGPPNDFGLFLSDDDPKKGIWLEAGKALDYYMLRNGDTMEYRKKQRPLKIRMLDGTVKTIMVDDSKTVTDMLMTICARIGITNHDEYSLVRELMEEKKDEGTGTLRKDKTLLRDEKKMEKLKQKLHTDDELNWLDHGRTLREQGVEEHETLLLRRKFFYSDQNVDSRDPVQLNLLYVQARDDILNGSHPVSFDKACEFAGFQCQIQFGPHNEQKHKAGFLDLKDFLPKEYVKQKGERKIFQAHKNCGQMSEIEAKVRYVKLARSLKTYGVSFFLVKEKMKGKNKLVPRLLGITKECVMRVDEKTKEVIQEWSLTNIKRWAASPKSFTLDFGDYQDGYYSVQTTEGEQIAQLIAGYIDIILKKKKS
notes: talin-1 (TLN1) head domain (THD), residues 1-405; murine TLN1 cDNA is named only for the cell lines; also called WT; source: E. coli (DE3) Rosetta 2, purified (IMAC, SEC); not shown: His10-SUMO, N-terminal, cleaved
B2: ATTO 488-labeled integrin β1 cytoplasmic tail (488–β1-CT) (peptide, UniProt P09055-1 758-798, looked up)
peptide: {ATTO 488}-HDRREFAKFEKEKMNAKWDTGENPIYKSAVTTVVNPKYEGK
notes: integrin β1A cytoplasmic tail (β1-CT), residues 758-798; the limits 758-798 are stated for the recombinant β1-CT; also called β1A-CT; source: synthetic peptide (MPIB Core Facility)

Experiments:
Conditions in all cases: both partners purified
[1] = target: T1, biotinylated integrin β3 transmembrane …; experiment: flow cytometry-based reporter-displacement assay (FC-RDA) on beads; biotinylated TM–CT in 10% PIP3/90% DMPC nanodiscs on streptavidin beads; reporter 100 nM 565–THD1, unlabelled competitor titrated; 20 mM Tris pH 7.5, 200 mM NaCl, room temperature; IC50 of individual experiments; charged lipids contribute to the binding
[2] = target: T2, biotinylated integrin β1 transmembrane and cytoplasmic tail polypeptide (β1-TM–CT) in nanodiscs (UniProt P09055 726-798, biotin (biotin-maleimide)); experiment: flow cytometry-based reporter-displacement assay (FC-RDA) on beads; biotinylated TM–CT in 10% PIP2/90% DMPC nanodiscs on streptavidin beads; reporter 100 nM 565–THD1, unlabelled competitor titrated; 20 mM Tris pH 7.5, 200 mM NaCl, room temperature; IC50 of individual experiments; charged lipids contribute to the binding
T2 construct: integrin β1 TM and CT, residues 726-798; embedded in MSP2N2 nanodiscs with 10% PIP2 or PIP3 and 90% DMPC, on average one TM–CT per nanodisc; held on streptavidin beads; also called b1; source: E. coli BL21 (DE3) Rosetta 2, inclusion bodies, purified (IMAC, cation exchange)

[3] = target: T2, biotinylated integrin β1 transmembrane …; experiment: flow cytometry-based reporter-displacement assay (FC-RDA) on beads; biotinylated TM–CT in 10% PIP2/90% DMPC nanodiscs on streptavidin beads; reporter 50 nM 647–KIND2, unlabelled competitor titrated; 20 mM Tris pH 7.5, 200 mM NaCl, room temperature; IC50 of individual experiments; charged lipids contribute to the binding
[4] = target: T2, biotinylated integrin β1 transmembrane …; experiment: flow cytometry-based reporter-displacement assay (FC-RDA) on beads; biotinylated TM–CT in PIP2-containing nanodiscs on streptavidin beads; reporter 647–KIND2-Y13A, unlabelled competitor titrated; IC50 of individual experiments
[5] = target: B1; experiment: MST; unlabelled protein titrated to 50-200 nM ATTO 488-labelled β-CT peptide, no third protein; 20 mM Tris pH 7.5, 200 mM NaCl, 1 mM TCEP, 0.05% Tween-20; Kd of individual titrations (in S0002 mean and sd, n = 2)
[6] = target: B1; experiment: MST; apparent; THD1 titrated to 488–β1-CT or THD2 to 488–β3-CT in the presence of 30 µM KIND2; MST buffer
[7] = target: B1; experiment: MST; unlabelled protein titrated to 50-200 nM ATTO 488-labelled β-CT peptide, no third protein; 20 mM Tris pH 7.5, 200 mM NaCl, 1 mM TCEP, 0.05% Tween-20; Kd of individual titrations (in S0002 mean and sd, n = 2); remark: listed apart in the source
[8] = target: B1; experiment: MST; apparent; THD1 titrated to 488–β1-CT or 488–β3-CT in the presence of 500–1,100 µM KIND2-F0; MST buffer
[9] = target: B1; experiment: MST; apparent; THD1 titrated to 488–β1-CT or 488–β3-CT in the presence of 300–400 µM β-CT-binding-impaired KIND2 Q614A,W615A (QW/AA); MST buffer

Binder	IC50 [1]	IC50 [2]	IC50 [3]	IC50 [4]	Kd [5]	Kd [6]	Kd [7]	Kd [8]	Kd [9]
B1	53 nM and 70 nM and 127 nM	49 nM and 91 nM and 89 nM and 62 nM	249 nM and 192 nM and 87 nM	321 nM and 390 nM and 506 nM and 206 nM	–	–	–	–	–
B2	–	–	–	–	152000 nM	159000 nM and 173000 nM and 127000 nM	128000 nM and 152000 nM and 141000 nM	173000 nM and 137000 nM and 177000 nM	148000 nM and 212000 nM and 195000 nM
